Substrate in this series: N[C@@H](CO)C(=O)O
The experiment in a line: purified protein, by the assay type. The following applies: pH 7.6; 37.0 °C.

The values that follow come from article doi:10.1101/586255v1.

B1: SaSerRS (Staphylococcus aureus subsp. aureus NCTC 8325) (protein)
chain: MLDIRLFRNEPDTVKSKIELRGDDPKVVDEILELDEQRRKLISATEEMKARRNKVSEEIALKKRNKENADDVIAEMRTLGDDIKEKDSQLNEIDNKMTGILCRIPNLISDDVPQGESDEDNVEVKKWGTPREFSFEPKAHWDIVEELKMADFDRAAKVSGARFVYLTNEGAQLERALMNYMITKHTTQHGYTEMMVPQLVNADTMYGTGQLPKFEEDLFKVEKEGLYTIPTAEVPLTNFYRNEIIQPGVLPEKFTGQSACFRSEAGSAGRDTRGLIRLHQFDKVEMVRFEQPEDSWNALEEMTTNAEAILEELGLPYRRVILCTGDIGFSASKTYDLEVWLPSYNDYKEISSCSNCTDFQARRANIRFKRDKAAKPELAHTLNGSGLAVGRTFAAIVENYQNEDGTVTIPEALVPFMGGKTQISKPVK
For B1, the Km (usually the concentration of substrate that gives half-maximal velocity) stood at 4.39 ± 0.654 mM.

B2: EcSerRS (Escherichia coli K-12) (protein)
chain: MLDPNLLRNEPDAVAEKLARRGFKLDVDKLGALEERRKVLQVKTENLQAERNSRSKSIGQAKARGEDIEPLRLEVNKLGEELDAAKAELDALQAEIRDIALTIPNLPADEVPVGKDENDNVEVSRWGTPREFDFEVRDHVTLGEMHSGLDFAAAVKLTGSRFVVMKGQIARMHRALSQFMLDLHTEQHGYSENYVPYLVNQDTLYGTGQLPKFAGDLFHTRPLEEEADTSNYALIPTAEVPLTNLVRGEIIDEDDLPIKMTAHTPCFRSEAGSYGRDTRGLIRMHQFDKVEMVQIVRPEDSMAALEEMTGHAEKVLQLLGLPYRKIILCTGDMGFGACKTYDLEVWIPAQNTYREISSCSNVWDFQARRMQARCRSKSDKKTRLVHTLNGSGLAVGRTLVAVMENYQQADGRIEVPEVLRPYMNGLEYIG
Turning to B2, the Km was 4.706 ± 0.706 mM.
